Measured values: patent US20190375786A1, “STABLE PEPTIDES AND METHODS OF USE THEREOF” (Fred Hutchinson Cancer Research Center, priority 2016, published 2019)

How the values were obtained:
[1] = Resistance to elevated temperature, HPLC; format: physicochemical; details: HPLC peak vs untreated peptide; for Resistance to Temperature (75° C.): 75° C. for one hour; for Resistance to Temperature (100° C.): 100° C. for one hour
Method: (§1) Peptides were first suspended in 500 μl of ddH2O to a stock concentration of 2 mg/ml. Reactions were prepared by adding 12.5 μg of peptide from the stock solution to a 10 mM solution of DTT in PBS and allowed to incubate at room temperature for 30 minutes. Other reactions were prepared with 12.5 μg peptide and 500 U/ml trypsin in 25 mM Tris/75 mM NaCl buffer (pH 7.0) and incubated for 30 minutes at 37.5° C. These reactions were then quenched with 5 μg of soybean trypsin inhibitor (I) and, in some cases, 10 mM dithiothreitol (DTT). Reversed phase HPLC (RP-HPLC) was run on samples using an Agilent 1260 HPLC equipped with a C-18 Poroshell 120B column. Sample were analyzed by a gradient method with a mobile phase of Solvent A (water with 0.1% TFA) and Solvent B (acetonitrile with 0.1% TFA). Solvent B was ramped up from 5%-45% of the mobile phase over a period of 10 minutes. For testing pepsin digestion resistance, reactions were prepared with 12.5 μg peptide with or without 500 U/ml pepsin in simulated gastric fluid (SGF; pH 1.05; […] sodium chloride in 0.7% (v/v) hydrochloric acid) and were incubated for 30 minutes at 37.5° C. For testing temperature resistance, peptides were incubated at 70° C., 75° C., or 100° C. for one hour in 0.5 mM PBS, pelleted, and then the supernatant was analyzed by HPLC.
This example illustrates peptide stability at high temperatures. Peptides were first suspended in 500 μl of ddH2O to a stock concentration of 2 mg/ml. Reactions were prepared by adding 6.25 μl of peptide from the stock solution with 95 μl ddH2O and incubated at room temperature, 70° C., or 100° C. for one hour in a Thermocycler. RP-HPLC was then run on samples using an Agilent 1260 HPLC equipped with a C-18 Poroshell 120B column. Sample were analyzed by a gradient method with a mobile phase of Solvent A (water with 0.1% TFA) and Solvent B (acetonitrile with 0.1% TFA). Solvent B was ramped up from 5%-45% of the mobile phase over a period of 10 minutes.

trypsin = trypsin (Sus scrofa, UniProt P00761); assay: Trypsin digestion resistance of soluble peptide, RP-HPLC; format: in vitro ADME, porcine; parameters: purchased Sigma Aldrich 6567; details: 30 minutes at 37.5° C.; for Resistance to Trypsin (500 U/ml): 500 U/ml trypsin, HPLC peak vs untreated peptide
Summary of the method: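 12.5 μg soluble peptide digested with 500 U/ml porcine trypsin in PBS, 30 min at 37.5° C; quenched with soybean trypsin inhibitor, with or without 10 mM DTT reduction afterwards. Intact peptide assessed by C-18 RP-HPLC, 5-45% acetonitrile/0.1% TFA gradient over 10 min.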

[2] = Resistance to reduction by DTT, RP-HPLC; format: physicochemical; details: for Resistance to DTT Reduction (10 mM): 10 mM DTT in PBS, room temperature, 30 minutes, HPLC peak vs untreated peptide
Method: Peptides were first suspended in 500 ul of ddH2O to a stock concentration of 2 mg/ml. Reactions were prepared by adding 12.5 ug of peptide from the stock solution to a 10 mM solution of DTT in PBS and allowed to incubate at room temperature for 30 minutes. Other reactions were prepared with 12.5 μg peptide with or without 500 U/ml pepsin in simulated gastric fluid (SGF; pH 1.05; […] sodium chloride in 0.7% (v/v) hydrochloric acid) and were incubated for 30 minutes at 37.5° C. Some reactions were quenched with a final concentration of 100 mM Tris base and 10 mM dithiothreitol (DTT). Some reactions were performed in all of the above components, including simulated gastric fluid, pepsin, Tris, and DTT (referred to as SPTD). Reversed phase HPLC (RP-HPLC) was run on samples using an Agilent 1260 HPLC equipped with a C-18 Poroshell 120B column. Sample were analyzed by a gradient method with a mobile phase of Solvent A (water with 0.1% TFA) and Solvent B (acetonitrile with 0.1% TFA). Solvent B was ramped up from 5%-45% of the mobile phase over a period of 10 minutes. Peptides were detected at an absorbance of 214 nm and 280 nm.
as §1
This example illustrates peptide stability in biological conditions including in the presence of reducing agents, proteases, oxidative conditions, acidic conditions, and simulated gastric fluids. […] Various peptides were suspended in 500 μl of ddH2O at a stock concentration of 2 mg/ml. This was then diluted in accord with the reaction conditions to prevent adverse buffering effects. Reactions were prepared with 12.5 μg peptide dissolved in solution and, in some samples, additionally suspended in a 10 mM solution of DTT, simulated gastric fluid (pH 1.05; […] sodium chloride in 0.7% (v/v) hydrochloric acid), 500 U pepsin (5000 U/ml pepsin), 50 U trypsin (500 U/ml trypsin) with 1 mg/ml inhibitor in PBS, or a combination of any of these conditions. All protease reactions were incubated for 30 min at room temperature and then quenched. Pepsin reactions were quenched by adding Tris base to a final concentration of 0.075 M. Trypsin reactions were quenched by adding excess soybean trypsin inhibitor. RP-HPLC was then run on samples using an Agilent 1260 HPLC equipped with a C-18 Poroshell 120B column. Sample were analyzed by a gradient method with a mobile phase of Solvent A (water with 0.1% TFA) and Solvent B (acetonitrile with 0.1% TFA). Solvent B was ramped up from 5%-45% of the mobile phase over a period of 10 minutes.
FIG. 18 illustrates high performance liquid chromatograph (HPLC) traces of peptides in non-reducing (NR) conditions (solid trace) or in 10 mM DTT reducing (R) conditions (dashed trace). […]

pepsin = pepsin (Sus scrofa, UniProt P00791); assay: Pepsin digestion resistance in simulated gastric fluid, RP-HPLC; format: in vitro ADME, porcine; parameters: purchased Sigma Aldrich P7012; details: 500 U/ml pepsin in SGF pH 1.05, 30 minutes at 37.5° C.; HPLC peak vs untreated peptide
Summary of the method: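 Peptide (12.5 μg) incubated 30 min at 37.5 °C with or without 500 U/ml pepsin in simulated gastric fluid (pH 1.05; 2% NaCl in 0.7% HCl); some reactions quenched with 100 mM Tris and 10 mM DTT. Intact peptide followed by C-18 RP-HPLC (5–45% acetonitrile/0.1% TFA over 10 min) at 214 and 280 nm.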

trypsin, sequence (P00761 9-231): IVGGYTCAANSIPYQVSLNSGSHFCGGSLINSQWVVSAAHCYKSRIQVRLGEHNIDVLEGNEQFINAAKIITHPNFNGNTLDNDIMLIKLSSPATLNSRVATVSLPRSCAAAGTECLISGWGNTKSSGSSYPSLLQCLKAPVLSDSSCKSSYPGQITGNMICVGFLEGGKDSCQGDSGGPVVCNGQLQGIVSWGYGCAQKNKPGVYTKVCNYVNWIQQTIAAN
pepsin, sequence (P00791 60-385): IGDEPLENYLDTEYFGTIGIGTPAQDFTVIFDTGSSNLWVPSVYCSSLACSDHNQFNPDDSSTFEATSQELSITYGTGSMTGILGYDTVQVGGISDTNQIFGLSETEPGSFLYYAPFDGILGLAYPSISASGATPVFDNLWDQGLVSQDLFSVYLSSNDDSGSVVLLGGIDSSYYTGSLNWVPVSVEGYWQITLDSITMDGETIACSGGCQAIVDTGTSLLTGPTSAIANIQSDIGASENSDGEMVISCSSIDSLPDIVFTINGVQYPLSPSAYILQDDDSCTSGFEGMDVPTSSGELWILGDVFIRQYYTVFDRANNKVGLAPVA

Substance | Resistance to Temperature (75° C.) [1] | Resistance to Temperature (100° C.) [1] | Resistance to Trypsin (500 U/ml) (trypsin) | Resistance to DTT Reduction (10 mM) [2] | Resistance to Pepsin (500 U/ml) (pepsin) | resistance to trypsin digestion (in words) (trypsin; 500 U/ml trypsin (50 U per reaction), HPLC) | resistance to reduction by DTT (in words) ([2]; 10 mM DTT, HPLC vs non-reduced peptide)
48 (GSGIGDPVTCLKSGAICHPVFCPRRYKQIGTCGLPGTKCCKKP) [compound 48] | High (A peptide classified as high indicates that the majority (at least 75%) of the HPLC peak of the treated peptide is still present as compared to the HPLC peak of the untreated peptide) | High (A peptide classified as high indicates that the majority (at least 75%) of the HPLC peak of the treated peptide is still present as compared to the HPLC peak of the untreated peptide) | Low (A peptide classified as low indicates that the majority (over 75%) of the HPLC peak of the treated peptide disappeared as compared to the HPLC peak of the untreated peptide) | Low (A peptide classified as low indicates that the majority (over 75%) of the HPLC peak of the treated peptide disappeared as compared to the HPLC peak of the untreated peptide) | High (A peptide classified as high indicates that the majority (at least 75%) of the HPLC peak of the treated peptide is still present as compared to the HPLC peak of the untreated peptide) | – | –
16 (GSSCAKPGEMCMRIKCCDGQCGCNRGTGRCFCK) [compound 16] | High (A peptide classified as high indicates that the majority (at least 75%) of the HPLC peak of the treated peptide is still present as compared to the HPLC peak of the untreated peptide) | Low (A peptide classified as low indicates that the majority (over 75%) of the HPLC peak of the treated peptide disappeared as compared to the HPLC peak of the untreated peptide) | Low (A peptide classified as low indicates that the majority (over 75%) of the HPLC peak of the treated peptide disappeared as compared to the HPLC peak of the untreated peptide) | Low (A peptide classified as low indicates that the majority (over 75%) of the HPLC peak of the treated peptide disappeared as compared to the HPLC peak of the untreated peptide) | High (A peptide classified as high indicates that the majority (at least 75%) of the HPLC peak of the treated peptide is still present as compared to the HPLC peak of the untreated peptide) | – | –
46 (GSDCKYKFENWGACDGGTGTKVRQGTLKKARYNAQCQETIRVTKPC) [compound 46] | High (A peptide classified as high indicates that the majority (at least 75%) of the HPLC peak of the treated peptide is still present as compared to the HPLC peak of the untreated peptide) | Low (A peptide classified as low indicates that the majority (over 75%) of the HPLC peak of the treated peptide disappeared as compared to the HPLC peak of the untreated peptide) | Low (A peptide classified as low indicates that the majority (over 75%) of the HPLC peak of the treated peptide disappeared as compared to the HPLC peak of the untreated peptide) | Low (A peptide classified as low indicates that the majority (over 75%) of the HPLC peak of the treated peptide disappeared as compared to the HPLC peak of the untreated peptide) | Low (A peptide classified as low indicates that the majority (over 75%) of the HPLC peak of the treated peptide disappeared as compared to the HPLC peak of the untreated peptide) | – | –
44 (GSPDEYIERAKECCKKQDIQCCLRIFDESGDPNVMLICLFCW) [compound 44] | – | – | – | Moderate (A peptide classified as medium indicates that about half (between 25% and 75%) of the HPLC peak of the treated peptide disappeared as compared to the HPLC peak of the untreated peptide) | – | – | –
GSDCLPHLRRCRADNDCCGRRCRRRGTNAERRCR [SEQ ID NO: 1] | – | – | – | – | – | partially resistant | not resistant
1 (GSDCLPHLRRCRADNDCCGRRCRRRGTNAERRCR) [compound 1] | – | – | Moderate (A peptide classified as medium indicates that about half (between 25% and 75%) of the HPLC peak of the treated peptide disappeared as compared to the HPLC peak of the untreated peptide) | Low (A peptide classified as low indicates that the majority (over 75%) of the HPLC peak of the treated peptide disappeared as compared to the HPLC peak of the untreated peptide) | – | – | –
40 (GSPDEYIERAKECCKKGDIQCCLRYFEESGDPNVMLICAFCP) [compound 40] | – | – | – | Low (A peptide classified as low indicates that the majority (over 75%) of the HPLC peak of the treated peptide disappeared as compared to the HPLC peak of the untreated peptide) | – | – | –
26 (GSVGCEECPMHCKGKNANPTCDDGVCNCNV) [compound 26] | – | – | Moderate (A peptide classified as medium indicates that about half (between 25% and 75%) of the HPLC peak of the treated peptide disappeared as compared to the HPLC peak of the untreated peptide) | Low (A peptide classified as low indicates that the majority (over 75%) of the HPLC peak of the treated peptide disappeared as compared to the HPLC peak of the untreated peptide) | – | – | –
42 (GSFGLYDNQCATSDACSAICKYWTGSGQGKCQNNQCRCY) [compound 42] | – | – | – | Low (A peptide classified as low indicates that the majority (over 75%) of the HPLC peak of the treated peptide disappeared as compared to the HPLC peak of the untreated peptide) | – | – | –
41 (GSPDEYIERAKECCKKGDIQCCLRYFEESGDPNVMLICLACP) [compound 41] | – | – | – | Low (A peptide classified as low indicates that the majority (over 75%) of the HPLC peak of the treated peptide disappeared as compared to the HPLC peak of the untreated peptide) | – | – | –
